Test results reported in article PMC3542407 (Journal of biotechnology, 2012).

Experiments:
[1] = system: O=Cc1ccc(CO)o1; assay: purified protein; settings: 200 µM NADH, 100 mM Tris pH 7, 1 mM DTT, 25°C
[2] = system: CC=O; assay: purified protein; settings: 200 µM NADH, 100 mM Tris pH 7, 1 mM DTT, 25°C
[3] = system: CC(C)C=O; assay: purified protein; settings: 200 µM NADH, 100 mM Tris pH 7, 1 mM DTT, 25°C
[4] = system: O=CC=Cc1ccccc1; assay: purified protein; assay type: biochemical, Lactococcus lactis; settings: 200 µM NADH, 100 mM Tris pH 7, 1 mM DTT, 25°C
[5] = system: O=Cc1ccco1; assay: purified protein; assay type: biochemical, Lactococcus lactis; settings: 200 µM NADH, 100 mM Tris pH 7, 1 mM DTT, 25°C
[6] = biological target: LlAdhA (Lactococcus lactis, UniProt Q9CEN0, Y50F/N110S/I212T/L264V); assay: NADH consumption at […] nm; settings: read-out: LlAdhA^29C8 / KM; 200 µM NADH; 100 mM Tris pH 7, 1 mM DTT; 25°C

Row | Compound | Km [1] | kcat [1] | kcat/Km [1] | Km [2] | kcat [2] | kcat/Km [2] | Km [3] | kcat [3] | kcat/Km [3] | Km [4] | kcat [4] | kcat/Km [4] | Km [5] | kcat [5] | kcat/Km [5] | Km [6]
1 | LlAdhA (Lactococcus lactis subsp. lactis Il1403) | 22000 µM | 19 s⁻¹ | 880 M⁻¹ s⁻¹ | 400 µM | 35 s⁻¹ | 94000 M⁻¹ s⁻¹ | 12000 ± 1000 µM | 30 ± 1 s⁻¹ | 2800 ± 200 M⁻¹ s⁻¹ | 700 µM | 27 s⁻¹ | 39000 M⁻¹ s⁻¹ | 390 µM | 22 s⁻¹ | 57000 M⁻¹ s⁻¹ | 
2 | O=Cc1ccco1 [2-furaldehyde] |  |  |  |  |  |  |  |  |  |  |  |  |  |  |  | 200 µM
3 | LlAdhA (Lactococcus lactis subsp. lactis Il1403; I212T/L264V/Y50F) | 670 µM | 23 s⁻¹ | 34000 M⁻¹ s⁻¹ | 500 µM | 31 s⁻¹ | 57000 M⁻¹ s⁻¹ | 1700 ± 10 µM | 140 ± 1 s⁻¹ | 82000 ± 1000 M⁻¹ s⁻¹ |  |  |  |  |  |  | 
4 | LlAdhA (Lactococcus lactis subsp. lactis Il1403; I212T/L264V/N110S/Y50F) | 570 µM | 29 s⁻¹ | 51000 M⁻¹ s⁻¹ | 920 µM | 58 s⁻¹ | 63000 M⁻¹ s⁻¹ | 680 ± 70 µM | 300 ± 4 s⁻¹ | 440000 ± 50000 M⁻¹ s⁻¹ |  |  |  |  |  |  | 
5 | LlAdhA (Lactococcus lactis subsp. lactis Il1403; L264V/Y50F) |  |  |  |  |  |  | 1600 ± 200 µM | 50 ± 1 s⁻¹ | 32000 ± 4000 M⁻¹ s⁻¹ |  |  |  |  |  |  | 
